The text below walks through data of paper PMC5172458.

Substrate in this series: O=c1ccn([C@H]2C[C@H](O)[C@@H](COP(=O)(O)O)O2)c(=O)[nH]1
Description: purified protein. The class given is biochemical, Escherichia coli. To be noted: 25 °C, CH2H4folate fixed at 50 μM, TCEP.

B1: ecTSase (Escherichia coli thymidylate synthase) (Escherichia coli K-12; H147V) (protein)
chain: MKQYLELMQKVLDEGTQKNDRTGTGTLSIFGHQMRFNLQDGFPLVTTKRCHLRSIIHELLWFLQGDTNIAYLHENNVTIWDEWADENGDLGPVYGKQWRAWPTPDGRHIDQITTVLNQLKNDPDSRRIIVSAWNVGELDKMALAPCVAFFQFYVADGKLSCQLYQRSCDVFLGLPFNIASYALLVHMMAQQCDLEVGDFVWTGGDTHLYSNHMDQTHLQLSREPRPLPKLIIKRKPESIFDYRFEDFEIEGYDPHPGIKAPVAI
For orientation: Km means the substrate concentration at which the rate is half of its maximum. Usually kcat stands for the number of substrate molecules converted per active site and unit of time at saturation. On to B1, for which the Michaelis constant (Km) amounted to 4.0 ± 1.3 µM and the turnover number (kcat) is 0.61 ± 0.04 s⁻¹.
